Results taken from paper PMC13174313 (bioRxiv, 2026).

B1: D. melanogaster dynein intermediate chain ICTL (domain or fragment, UniProt Q24246 84-143, looked up)
chain: SNTQTPDASLQATVNGQSGGKKQPLNLSVYNVQATNIPPKETLVYTKQTQTTSTGGGNGD

What was measured:
Assay in all cases: ITC
[1] = molecular target: TII: Tctex1 homodimer with two IC chains bound (D. melanogaster) (UniProt Q94524)
[2] = molecular target: T1, D. melanogaster dynein light chain Tctex1 (D. melanogaster, UniProt Q94524 1-111)
T1 sequence: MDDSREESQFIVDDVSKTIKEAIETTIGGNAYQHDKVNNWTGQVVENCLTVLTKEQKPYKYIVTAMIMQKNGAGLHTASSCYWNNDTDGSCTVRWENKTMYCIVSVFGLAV

[3] = molecular target: D. melanogaster dynein light chain LC8 (D. melanogaster, UniProt Q24117 1-89)
D. melanogaster dynein light chain LC8 (D. melanogaster, UniProt Q24117 1-89), sequence (Q24117 whole entry): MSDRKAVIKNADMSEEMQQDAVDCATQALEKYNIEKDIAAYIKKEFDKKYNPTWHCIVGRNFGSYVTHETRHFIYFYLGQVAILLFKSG

Row | Molecule | dH (TII -> TIILII) [1] | dH, first IC on the Tctex1 dimer (TI) [2] | dH, second IC on the Tctex1 dimer (TI to TII) [2] | dH, first IC on the LC8 dimer (LI) [3] | dH, second IC on the LC8 dimer (LI to LII) [3]
1 | D. melanogaster dynein light chain LC8 (from UniProt Q24117 1-89) (natural protein) | -25.8 kcal/mol | – | – | – | –
2 | B1 | – | -6.76 kcal/mol | -4.97 kcal/mol | -14.8 kcal/mol | -15.1 kcal/mol
